Laboratory results as given in publication PMC11477680, “A Label-Free Electrochemical Aptamer Sensor for Sensitive Detection of Cardiac Troponin I Based on AuNPs/PB/PS/GCE”.

Experiments:
myoglobin (Myo) = target: T1, myoglobin (Myo) (UniProt P02144 2-154); assay: electrochemical aptasensor (DPV); 1 ng/mL; negligible current change; Aptamer immobilization: 20 mM Tris-HCl, 5 mM MgCl2, 50 mM NaCl, pH 7.4, 4 C; cTnI incubation 1 h (serum samples: 10% serum in 20 mM Tris-HCl, 150 mM NaCl, pH 7.4, 37 C); DPV read in 0.8 M KNO3, CV/EIS in 0.1 M PBS with 5 mM [Fe(CN)6]3-/4-; conditions: protein: commercial
T1 sequence: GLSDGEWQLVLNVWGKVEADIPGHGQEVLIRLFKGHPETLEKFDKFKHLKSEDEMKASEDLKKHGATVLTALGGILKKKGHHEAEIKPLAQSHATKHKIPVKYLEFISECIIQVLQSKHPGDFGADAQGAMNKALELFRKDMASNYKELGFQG

[1] = target: cardiac troponin I (cTnI) (UniProt P19429 2-210); assay: electrochemical aptasensor (DPV, CV, EIS); DPV response 10 fg/mL-1.0 ug/mL, LOD 2.03 fg/mL; Rct 514 to 606 ohm with 100 ng/mL cTnI; Aptamer immobilization: 20 mM Tris-HCl, 5 mM MgCl2, 50 mM NaCl, pH 7.4, 4 C; cTnI incubation 1 h (serum samples: 10% serum in 20 mM Tris-HCl, 150 mM NaCl, pH 7.4, 37 C); DPV read in 0.8 M KNO3, CV/EIS in 0.1 M PBS with 5 mM [Fe(CN)6]3-/4-; conditions: protein: commercial
cardiac troponin I (cTnI), sequence (P19429 2-210): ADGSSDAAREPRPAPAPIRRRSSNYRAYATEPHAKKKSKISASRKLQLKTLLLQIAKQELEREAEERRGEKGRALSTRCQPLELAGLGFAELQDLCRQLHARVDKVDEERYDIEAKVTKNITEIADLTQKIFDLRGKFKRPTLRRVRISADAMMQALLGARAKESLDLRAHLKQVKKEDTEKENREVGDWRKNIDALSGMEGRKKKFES

Does CGTGCAGTACGCCAACCTTTCTCATGCGCTGCCCCCCTCTTA (ssDNA, 5'-SH-(C6) thiol linker) [Tro4] bind (myoglobin (Myo))?
Result: no binding

Does CGTGCAGTACGCCAACCTTTCTCATGCGCTGCCCCCCTCTTA (ssDNA, 5'-SH-(C6) thiol linker) [Tro4] bind [1]?
Result: binds
